This is an account of results in patent US20240075137A1 (COMPUGEN, published 2024).

Residue numbers refer to the chain shown, from its start.

To fix the notation:
B1: human TIGIT on cells (receptor)
chain: MMTGTIETTGNISAEKGGSIILQCHLSSTTAQVTQVNWEQQDQLLAICNADLGWHISPSFKDRVAPGPGLGLTLQSLTVNDTGEYFCIYHTYPDGTYTGRIFLEVLESSVAEHGARFQIP
notes: also called Expi293 human TIGIT over-expressing cells
B2: CHA.9.543 (antibody, V domains shown)
VH: EVQLQQSGPELVKPGASMKISCKASGYSFTGYTMNWVRQSHGKNLEWLGLIFPYNGGTSYNQNFKGKATLTVDTSSSTAYMELLSLTSVDSAVYYCARGVRFALDYWGQGTSVSVSS
VL: DVVMTQTPLSLPVSFGDQVSISCRSSQSLANSYGNTYLSWYLHKPGQSPQLLIYEISNRFSGVPDRFSGSGSGTDFTLNISTIKPEDLGMYYCLQGTHQPWTFGGGTKLEIKR
B3: CPA.9.027 hIgG4 (antibody, V domains shown)
VH: EVQLVETGGGLIQPGRSLRLSCAASGFTFSSYAMHWVRQAPGKGLEWVAVISYDGSNKYYADSVKGRFTISRDNSKNTLYLQMNSLRAEDTAVYYCARDPLPLHYYGMDVWGQGTTVTVSS
VL: QSALTQPRSASGNPGQRVTISCSGSSSNMGRRPVNWYQQIPGTAPKLLIYSQNQRPSGVPDRFSGSQSGTSASLTISGLQSEDEAEYFCAVWDDSLSSLQLGGGTQLAVLG
notes: phage-derived anti-TIGIT, human IgG4; also called CPA.9.027-H4
B4: CPA.9.083 reformatted as mouse IgG1 (antibody, V domains shown)
VH: B3 VH with S56T, N57P, K58V
VL: B3 VL with D94G, S95D, L96R, S97R
notes: also called CPA.9.083 mIgG1
B5: CPA.9.049 hIgG4 (antibody, V domains shown)
VH: B3 VH
VL: B3 VL with S97F, Q100L
notes: phage-derived anti-TIGIT, human IgG4; also called CPA.9.049-H4
B6: CPA.9.086 reformatted as mouse IgG1 (antibody, V domains shown)
VH: B3 VH with D54A, S56E, N57V
VL: B3 VL with S95I, L96G, S97R, S98V
notes: also called CPA.9.086 mIgG1
B7: CPA.9.059 hIgG4 (antibody, V domains shown)
VH: EVQLVETGGGLIQPGGSLRLSCAASGFTVSSNYMSWVRQAPGKGLEWVSVIYSGGSTYYADSVKGRFTISRDNSKNTLYLQMNSLRAEDTAVYYCARGARYSYGQYPYWGQGTLVTVSS
VL: DIQLTQSPSFLSASVGDRVTITCRASHDISSLFSWYQQKPGKAPKLLIYAASTLQTGVPSRFSGSASGTEFTLTISSLQPEDFATYYCLQLDSFPTWTFGQGTKVEIKR
notes: phage-derived anti-TIGIT, human IgG4; also called CPA.9.059-H4
B8: CPA.7.021 (antibody, V domains shown)
VH: EVQLVESGGGVVKPGGSLRLSCAASGFTFGTSSMNWVRQAPGKGLEWVAVISFDGTEIHYADSVKGRFTISRDNSKSTVFLQMNSLRPDDTALYYCAKGSGNIYFYSGMDVWGQGTTVTVSS
VL: DIQMTQSPSTLSASVGDRVTITCRAGQSISGWLAWFQQKPGKAPNLLIYETSTLESGVPSRFSGSGSGTEYTLTISSLQPDDFATYYCQQYYSYPLTFGQGTKVEIKR

The target of experiment [1] is T1, human PVR-h1Fc (Sino Biological #10109-H20H) (human, UniProt P15151 21-343).
T1 construct: bought; also called hPVR-hFc; Sino PVR-Fc
T1 sequence (looked up): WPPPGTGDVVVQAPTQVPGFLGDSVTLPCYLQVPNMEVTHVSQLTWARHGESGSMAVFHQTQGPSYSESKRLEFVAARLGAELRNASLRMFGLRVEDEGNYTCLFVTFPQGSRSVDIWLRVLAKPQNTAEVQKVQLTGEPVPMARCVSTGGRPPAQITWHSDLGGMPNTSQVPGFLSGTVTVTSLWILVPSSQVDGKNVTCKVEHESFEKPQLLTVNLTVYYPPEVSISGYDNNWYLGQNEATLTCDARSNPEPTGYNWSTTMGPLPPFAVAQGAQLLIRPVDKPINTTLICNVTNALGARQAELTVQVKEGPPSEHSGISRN
Nature of the experiment: FACS titration on Expi293 human TIGIT over-expressing cells (gMFI OE:Parental); ± 95% CI; 'Fit: Fair'.

Experiment [2] deals with B1. The experiment can be described thus: FACS KD on Expi293 human TIGIT over-expressing cells; ± 95% CI of the fit.
Experiment [3] addresses T2, human TIGIT ECD with C-terminal polyhistidine tag (human, UniProt Q495A1 22-141).
T2 construct: in-house or Sino Biological; also called hTIGIT-HIS; human TIGIT-HIS
T2 sequence: B1 chain
Nature of the experiment: SPR (ProteOn), mAb captured, human TIGIT injected.

Another experiment concerns the target T3, cyno TIGIT on cells (cynomolgus macaque).
T3 construct: whole, on cells; also called Expi293 cyno TIGIT over-expressing cells
The experiment can be described thus: FACS KD on Expi293 cyno TIGIT over-expressing cells; ± 95% CI of the fit.

Experiment [4] addresses T4, Cyno TIGIT-His.
T4 construct: also called cyno TIGIT monomer (prepared in-house); C-terminal HIS-tagged cyno TIGIT ECD recombinant protein
The experiment can be described thus: SPR (ProteOn), mAb captured, cyno TIGIT monomer injected; kd of this row held constant.

Experiment [5] addresses B1. The experiment can be described thus: FACS blocking: Expi293 human TIGIT cells pre-incubated with mAb, then human PVR-m2aFc; lower gMFI = more blocking.
The target in another experiment is T5, Mouse TIGIT-His (mouse, UniProt P86176).
T5 construct: also called mouse TIGIT monomer (prepared in-house)
T5 sequence (soluble monomer with His tag, looked up): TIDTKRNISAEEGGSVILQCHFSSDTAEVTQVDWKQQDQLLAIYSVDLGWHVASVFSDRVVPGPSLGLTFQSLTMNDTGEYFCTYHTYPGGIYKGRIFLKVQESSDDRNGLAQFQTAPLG
The experiment can be described thus: SPR (ProteOn), mAb captured, mouse TIGIT monomer injected.

Another experiment has as its target T6, mouse TIGIT on cells (mouse, UniProt P86176 29-249).
T6 construct: whole, on cells; also called mouse TIGIT over-expressing HEK cells; mouse Tregs
T6 sequence (looked up): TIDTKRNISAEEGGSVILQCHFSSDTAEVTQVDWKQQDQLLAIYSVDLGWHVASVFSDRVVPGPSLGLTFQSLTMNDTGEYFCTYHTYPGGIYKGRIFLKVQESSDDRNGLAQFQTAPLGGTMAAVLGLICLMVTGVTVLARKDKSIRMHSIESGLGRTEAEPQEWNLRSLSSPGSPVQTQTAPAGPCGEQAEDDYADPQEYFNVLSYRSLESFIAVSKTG
Nature of the experiment: FACS titration of AF647-labelled mAb on mouse CD4+CD25+Foxp3+ Tregs from Renca tumors; no unit beside the value, nM taken from the axis (binding site).

Experiment [6] deals with T4, Cyno TIGIT-His. The experiment can be described thus: SPR (ProteOn), mAb captured, cyno TIGIT monomer injected.
Experiment [7] concerns the target T7, human PVRIG on cells (human, UniProt Q6DKI7 1-326).
T7 construct: whole, on cells; over-expressed on HEK cells or endogenous on Jurkat and CD8 T cells; also called hPVRIG; HEK hPVRIG cells
T7 sequence (looked up): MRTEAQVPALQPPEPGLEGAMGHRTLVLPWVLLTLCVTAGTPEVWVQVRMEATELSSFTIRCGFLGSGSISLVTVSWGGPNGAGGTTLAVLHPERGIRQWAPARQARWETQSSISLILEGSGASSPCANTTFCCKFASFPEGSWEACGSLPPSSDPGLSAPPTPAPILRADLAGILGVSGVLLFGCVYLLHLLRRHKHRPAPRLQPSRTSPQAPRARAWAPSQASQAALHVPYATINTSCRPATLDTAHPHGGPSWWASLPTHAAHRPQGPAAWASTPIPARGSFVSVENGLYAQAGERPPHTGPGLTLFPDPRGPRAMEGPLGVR
The experiment can be described thus: FACS on HEK hPVRIG cells; column head 'Kd', unit nM from legend paragraph 75.

The target in experiment [8] is T7, human PVRIG on cells. The experiment can be described thus: FACS on Jurkat cells; column head 'Kd', unit nM from legend paragraph 75.

T4 sequence (ECD with C-terminal His tag, as listed by the source): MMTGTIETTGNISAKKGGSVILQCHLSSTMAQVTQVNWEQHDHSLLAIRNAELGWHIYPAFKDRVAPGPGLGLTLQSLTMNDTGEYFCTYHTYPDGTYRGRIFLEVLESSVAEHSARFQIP

A word on the Kd: it is the concentration at which binding is half-saturated. Turning to B1, the Kd in experiment [1] was 10 nM.

B2: the Kd with human TIGIT on cells [2] stood at 10.2 nM; in experiment [3], 0.0231 nM; in the experiment with cyno TIGIT on cells, 17.2 nM; with Cyno TIGIT-His [4] it was 0.00155 nM.

As to B3, the Kd worked out at 0.17 nM with human TIGIT on cells [2], 0.13 nM in [3], 2.25 nM with cyno TIGIT on cells and 80 nM with Mouse TIGIT-His. For the same molecule, the “gMFI of bound PVR-m2aFc at 266 pM mAb” value with human TIGIT on cells [5] came to 529. For the same molecule, in the experiment with human TIGIT on cells [5], the “gMFI of bound PVR-m2aFc at 1.3 nM mAb” value is 253. In the experiment with human TIGIT on cells [5], the “gMFI of bound PVR-m2aFc at 6.7 nM mAb” value was 208.

In the experiment with mouse TIGIT on cells, B4 showed a Kd of 0.4 nM.

In the case of B5, the Kd with human TIGIT on cells [2] was determined as 0.26 nM; in experiment [3] it was 0.0945 nM; with cyno TIGIT on cells, 1.88 nM; in the experiment with Mouse TIGIT-His, 82.7 nM. Besides, the “gMFI of bound PVR-m2aFc at 266 pM mAb” value with human TIGIT on cells [5] stood at 511. Besides, in the experiment with human TIGIT on cells [5], the “gMFI of bound PVR-m2aFc at 1.3 nM mAb” value was 276. Further, the “gMFI of bound PVR-m2aFc at 6.7 nM mAb” value in the experiment with human TIGIT on cells [5] stood at 215.

In the experiment with mouse TIGIT on cells, B6 gave a Kd of 0.68 nM.

On to B7, for which the Kd with human TIGIT on cells [2] was found to be 0.29 nM. The Kd in experiment [3] amounted to 0.0213 nM. Further, in the experiment with human TIGIT on cells [5], the “gMFI of bound PVR-m2aFc at 266 pM mAb” value worked out at 509, the “gMFI of bound PVR-m2aFc at 1.3 nM mAb” value is 262 and the “gMFI of bound PVR-m2aFc at 6.7 nM mAb” value worked out at 209. In addition, the binding result with Cyno TIGIT-His [6] is reported as “binds”.

Regarding B8, the Kd with human PVRIG on cells [7] turned out to be 2.94 nM; in the experiment with human PVRIG on cells [8] it was 3.18 nM.
